Reference: patent publication US20130122008A1, “Anti-IL 1- ß Antibody Combination Therapy” (NOVARTIS AG, priority 2009, published 2013)
Entries after “also recorded” stand apart in the source; their conditions may differ.

Tests used:
Type in all cases: in vivo, human
[1] = system: patients with type 2 diabetes mellitus (T2DM); assay: Proinsulin in clinical study of ACZ885 in T2DM patients on metformin; settings: Week 4 post-dose, versus placebo
Protocol: A multi center, randomized, double blind, placebo-controlled, dose escalation study of the safety, tolerability, pharmacokinetics and pharmacodynamics of ACZ885 administered intravenously to patients with type 2 diabetes mellitus. The aim of the study is to compare the pharmacokinetic and pharmacodynamic effects of five doses (i.v. administration) of ACZ885 with placebo in patients with type 2 diabetes mellitus (T2DM). […] OGTT was administered at Baseline, 4 and 12 wk post-dose. The subsequent cohorts were included in the evaluation of pharmacodynamic, pharmacokinetis, pharmacogenomics and pharmacogenetics. • Cohort 2 (n=90; 1:1=ACZ885:Plb): received a single dose of ACZ885 (10 mg/kg) or placebo. • Cohort 3 (n=96) received a single dose of ACZ885 0.1, 0.3, 1.5 mg/kg or placebo (1:1:1:1). • Cohort 4 (n=30; 2:1=ACZ885:P1b) received a single dose of ACZ885 (0.03 mg/kg) or placebo. The study was designed to follow the patients for 24 weeks (168 days) after the single intravenous (i.v.) administration. An analysis of covariance (ANCOVA) with treatment as the classification variable and baseline as the covariate will be used for the comparison of treatments with respect to these parameters.

[2] = system: patients with type 2 diabetes mellitus (T2DM); assay: Glucagon (OGTT) in clinical study of ACZ885 in T2DM patients on metformin; settings: dose escalation, Week 4 post-dose, versus placebo
Text: Glucagon is a hormone secreted by the alpha cells of the pancreatic islets of Langerhans. It is secreted in response to hypoglycemia and increases the blood glucose. As serum glucose levels rise in the blood, glucagon is inhibited by a negative feedback mechanism. The Millipore/LINCO Glucagon Radioimmunoassay kit utilized I^125 labeled glucagon and glucagon antiserum to determine the level of glucagon in plasma by the double antibody/PEG technique. The antibody is specific for pancreatic glucagon. A standard curve is set up with increasing concentrations of standard unlabeled antigen and from this curve the amount of antigen in unknown samples can be calculated. The method has an inter-assay precision of 7.3-13.5% CV, and an intra-assay precision of 4.0-6.8% (determined by assaying replicate assays then evaluating the coefficient of variation). Accuracy is evaluated by comparison with College of American Pathologists (CAP) Ligand. A multi center, randomized, double blind, placebo-controlled, dose escalation study of the safety, tolerability, pharmacokinetics and pharmacodynamics of ACZ885 administered intravenously to patients with type 2 diabetes mellitus. The aim of the study is to compare the pharmacokinetic and pharmacodynamic effects of five doses (i.v. administration) of ACZ885 with placebo in patients with type 2 diabetes mellitus (T2DM). […]

[3] = system: patients with type 2 diabetes mellitus (T2DM); assay: C-peptide (OGTT) in clinical study of ACZ885 in T2DM patients on metformin; settings: dose escalation, Week 4 post-dose, versus placebo
Text: In the beta cells of the pancreas, the proinsulin molecule is cleaved to form insulin and C-Peptide. C-Peptide, a polypeptide consisting of 31 amino acids, is stored in the secretory granules of the beta cells and released into circulation in equimolar amounts with insulin. The determination of C-Peptide provides an assessment of endogenous insulin secretory reserves in patients with diabetes mellitus and is considered a more reliable indicator of insulin secretion than insulin itself. The ADVIA Centaur C-Peptide assay is a two-site sandwich immunoassay using direct chemiluminescent technology, which uses constant amounts of two antibodies. The first antibody, in the Lite Reagent, is a monoclonal mouse anti-C-Peptide antibody labeled with acridinium ester. The second antibody, in the Solid Phase, is a monoclonal mouse anti-C-Peptide antibody. Streptavidin in the Solid phase is covalently coupled. A direct relationship exists between the amount of C-Peptide present in the patient sample and the amount of relative light units (RLUs) detected by the system. The method has an inter-assay precision of 1.69-1.81% CV, and an intra-assay precision of 3.7-4.1% (determined by assaying 20 replicate assays of a sample then evaluating the coefficient of variation). Accuracy is evaluated by comparison with College of American Pathologists (CAP) Ligand. […]

B1: ACZ885: anti-IL1β antibody, also referred to as Canakinumab; variable domains shown in SEQ ID NO:1 (VH) and SEQ ID NO:2 (VL) (antibody, V domains shown)
VH: QVQLVESGGGVVQPGRSLRLSCAASGFTFSVYGMNWVRQAPGKGLEWVAIIWYDGDNQYYADSVKGRFTISRDNSKNTLYLQMNGLRAEDTAVYYCARDLRTGPFDYWGQGTLVTVSS
VL: EIVLTQSPDFQSVTPKEKVTITCRASQSIGSSLHWYQQKPDQSPKLLIKYASQSFSGVPSRFSGSGSGTDFTLTINSLEAEDAAAYYCHQSSSLPFTFGPGTKVDIK
modifications: homo sapiens
[1]
  proinsulin: positive trend at Week 4 post-dose, albeit not statistically significant
[2]
  OGTT glucagon AUC0-4 h: Positive trends consistent with dose escalation; also recorded: positive trend at Week 4 post-dose, albeit not statistically significant
[3]
  OGTT C-peptide AUC0-4 h: Positive trends consistent with dose escalation; also recorded: positive trend at Week 4 post-dose, albeit not statistically significant
